Reference: PMC9691347, “C9orf72 regulates the unfolded protein response and stress granule formation by interacting with eIF2α” (Theranostics, 2022)

Target: T1, MBP-tagged eIF2α (MBP-eIF2α) (human, UniProt P05198 1-315)
T1 construct: full-length human EIF2S1 cDNA in pMAL-c2x; source: Rosetta E. coli, purified (dextrin beads 6FF)
Test: pull-down; 0.5 µg purified GST or GST-tagged proteins on glutathione magnetic beads, incubated with 0.5 µg purified MBP or MBP-eIF2α for 4 h at 4°C; six washes with 400 mM NaCl, 0.5% Triton X-100; western blot
Settings: both partners purified

T1 sequence (P05198 whole entry): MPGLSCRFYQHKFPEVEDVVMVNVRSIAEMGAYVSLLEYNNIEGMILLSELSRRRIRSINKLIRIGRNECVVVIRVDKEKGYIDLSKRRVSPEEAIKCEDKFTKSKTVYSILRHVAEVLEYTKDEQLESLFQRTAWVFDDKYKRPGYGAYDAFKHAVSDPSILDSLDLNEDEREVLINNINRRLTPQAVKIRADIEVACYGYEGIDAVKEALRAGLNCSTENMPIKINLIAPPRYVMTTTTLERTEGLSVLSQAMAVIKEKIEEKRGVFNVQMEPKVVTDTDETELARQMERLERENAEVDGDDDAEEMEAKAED

binding result: binds
B1: GST-tagged C9orf72 short protein isoform (GST-C9S) (natural protein, human, UniProt Q96LT7-2 1-222, looked up)
chain: MSTLCPPPSPAVAKTEIALSGKSPLLAATFAYWDNILGPRVRHIWAPKTEQVLLSDGEITFLANHTLNGEILRNAESGAIDVKFFVLSEKGVIIVSLIFDGNWNGDRSTYGLSIILPQTELSFYLPLHRVCVDRLTHIIRKGRIWMHKERQENVQKIILEGTERMEDQGQSIIPMLTGEVIPVMELLSSMKSHSVPEEIDIADTVLNDDDIGDSCHEGFLLK
notes: human C9orf72 short protein isoform, 222 aa, encoded by exons 2-5; pGEX-6P-1 vector; source: Rosetta E. coli, purified (glutathione magnetic beads)
